The record followed here is article PMC6097307, “Development and characterization of an HPV18 detection kit using two novel HPV18 type-specific monoclonal antibodies” (Diagnostic Pathology, 2018).

Assay [1] concerns the target T1, HPV18 L1 virus-like particle (Human papillomavirus type 18, isolate …, UniProt P06794). Kind of assay: cell-based or functional assay.
The target in assay [2] is T2, HPV58 L1 virus-like particle (Human papillomavirus type 58, isolate …, UniProt P26535).
T2 construct: major capsid protein L1 of human papillomavirus type 58, assembled into virus-like particles; Used native and denatured; also called HPV58 L1-VLP
T2 sequence (P26535 whole entry): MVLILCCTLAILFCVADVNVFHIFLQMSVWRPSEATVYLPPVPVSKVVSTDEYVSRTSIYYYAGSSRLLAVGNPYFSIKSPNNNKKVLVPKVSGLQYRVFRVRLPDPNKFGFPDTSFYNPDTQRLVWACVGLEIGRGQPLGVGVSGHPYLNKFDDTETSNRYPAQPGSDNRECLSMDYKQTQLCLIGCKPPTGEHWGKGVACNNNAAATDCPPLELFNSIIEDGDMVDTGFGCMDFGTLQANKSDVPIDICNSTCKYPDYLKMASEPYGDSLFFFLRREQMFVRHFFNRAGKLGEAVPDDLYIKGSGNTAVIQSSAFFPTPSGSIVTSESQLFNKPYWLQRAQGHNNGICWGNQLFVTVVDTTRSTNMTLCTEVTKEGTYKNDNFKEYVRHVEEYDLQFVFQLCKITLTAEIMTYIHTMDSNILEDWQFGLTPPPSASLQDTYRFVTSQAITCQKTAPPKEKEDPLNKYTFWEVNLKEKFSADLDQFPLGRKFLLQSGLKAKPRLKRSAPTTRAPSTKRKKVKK
As to the kind of experiment: ELISA; indirect ELISA; native L1-VLPs of nine HPV types coated at 200 ng/well overnight at 4 °C; mAb 0.3 μg/ml, 1 h, room temperature; HRP goat anti-mouse IgG. Conditions: both partners purified.

Assay [3] addresses T3, HPV11 L1 virus-like particle (Human papillomavirus type 11, isolate …, UniProt P04012).
T3 construct: major capsid protein L1 of human papillomavirus type 11, assembled into virus-like particles; Used native and denatured; also called HPV11 L1-VLP
The assay is described as above. The settings on record: both partners purified.

In assay [4] the target is T4, HPV16 L1 virus-like particle (Human papillomavirus type 16, isolate …, UniProt P03101).
T4 construct: major capsid protein L1 of human papillomavirus type 16, assembled into virus-like particles; Used native and denatured; also called HPV16 L1-VLP
T4 sequence (P03101 whole entry): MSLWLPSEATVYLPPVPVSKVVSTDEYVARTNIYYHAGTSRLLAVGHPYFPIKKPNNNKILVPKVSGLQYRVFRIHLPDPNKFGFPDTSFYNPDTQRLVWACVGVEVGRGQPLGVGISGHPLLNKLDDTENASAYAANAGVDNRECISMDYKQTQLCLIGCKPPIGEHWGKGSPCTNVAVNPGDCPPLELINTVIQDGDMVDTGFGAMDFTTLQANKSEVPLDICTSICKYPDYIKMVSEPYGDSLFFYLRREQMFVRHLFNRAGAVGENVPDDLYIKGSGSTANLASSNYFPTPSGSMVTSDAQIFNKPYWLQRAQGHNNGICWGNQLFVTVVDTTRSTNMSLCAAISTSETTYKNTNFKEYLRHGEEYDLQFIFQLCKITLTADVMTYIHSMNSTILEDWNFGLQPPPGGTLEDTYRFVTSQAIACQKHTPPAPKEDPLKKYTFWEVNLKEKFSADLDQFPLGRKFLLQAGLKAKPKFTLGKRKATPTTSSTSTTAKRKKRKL
The assay is described as above. The settings on record: both partners purified.

Assay [5] concerns the target T5, HPV31 L1 virus-like particle (Human papillomavirus type 31, isolate …, UniProt P17388).
T5 construct: major capsid protein L1 of human papillomavirus type 31, assembled into virus-like particles; Used native and denatured; also called HPV31 L1-VLP; HPV31VLP
Described as above. The settings on record: both partners purified.

Assay [6] concerns the target T6, HPV33 L1 virus-like particle (Human papillomavirus type 33, isolate …, UniProt P06416).
T6 construct: major capsid protein L1 of human papillomavirus type 33, assembled into virus-like particles; Used native and denatured; also called HPV33 L1-VLP
Described as above. Conditions: both partners purified.

Assay [7] has as its target T7, HPV45 L1 virus-like particle (Human papillomavirus type 45, isolate …, UniProt P36741).
T7 construct: major capsid protein L1 of human papillomavirus type 45, assembled into virus-like particles; Used native and denatured; also called HPV45 L1-VLP
Described as above. The settings on record: both partners purified.

The target of assay [8] is T1, HPV18 L1 virus-like particle. Kind of assay: SPR; BIACORE3000; L1-VLPs coupled to the chip (40 μg/ml, acetate pH 5.5, 4000 RU); antibodies at seven concentrations 0.3125 to 20 nM in PBS; binding 60 s, dissociation 500 s. The settings on record: both partners purified.
In assay [9] the target is T2, HPV58 L1 virus-like particle. Kind of assay: ELISA; indirect ELISA as a2 but L1-VLPs denatured (0.2 M sodium carbonate pH 10.6, 10 mM DTT, 30 min, boiled 5 min) before coating; mAb 0.3 μg/ml. Conditions: both partners purified.
The target of assay [10] is T4, HPV16 L1 virus-like particle. Described as above. Conditions: both partners purified.
The target in assay [11] is T5, HPV31 L1 virus-like particle. The description is as above. Conditions: both partners purified.
Assay [12] addresses T6, HPV33 L1 virus-like particle. The assay is described as above. Conditions: both partners purified.
The target of assay [13] is T7, HPV45 L1 virus-like particle. Described as above. The settings on record: both partners purified.

T1 sequence (P06794 whole entry): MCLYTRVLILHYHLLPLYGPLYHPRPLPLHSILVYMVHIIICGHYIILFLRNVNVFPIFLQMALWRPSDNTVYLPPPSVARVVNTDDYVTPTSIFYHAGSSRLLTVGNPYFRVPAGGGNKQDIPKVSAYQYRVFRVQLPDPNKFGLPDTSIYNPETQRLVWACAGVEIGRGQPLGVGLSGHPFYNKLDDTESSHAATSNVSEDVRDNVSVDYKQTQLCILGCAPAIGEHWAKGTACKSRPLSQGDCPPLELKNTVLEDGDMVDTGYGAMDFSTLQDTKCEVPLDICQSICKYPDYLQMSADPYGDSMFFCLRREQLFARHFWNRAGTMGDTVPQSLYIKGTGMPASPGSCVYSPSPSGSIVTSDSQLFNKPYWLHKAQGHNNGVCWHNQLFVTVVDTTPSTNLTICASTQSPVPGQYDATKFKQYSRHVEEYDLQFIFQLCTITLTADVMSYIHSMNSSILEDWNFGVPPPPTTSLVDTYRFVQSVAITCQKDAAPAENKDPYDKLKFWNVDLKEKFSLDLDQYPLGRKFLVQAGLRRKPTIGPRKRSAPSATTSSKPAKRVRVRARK
T3 sequence (P04012 whole entry): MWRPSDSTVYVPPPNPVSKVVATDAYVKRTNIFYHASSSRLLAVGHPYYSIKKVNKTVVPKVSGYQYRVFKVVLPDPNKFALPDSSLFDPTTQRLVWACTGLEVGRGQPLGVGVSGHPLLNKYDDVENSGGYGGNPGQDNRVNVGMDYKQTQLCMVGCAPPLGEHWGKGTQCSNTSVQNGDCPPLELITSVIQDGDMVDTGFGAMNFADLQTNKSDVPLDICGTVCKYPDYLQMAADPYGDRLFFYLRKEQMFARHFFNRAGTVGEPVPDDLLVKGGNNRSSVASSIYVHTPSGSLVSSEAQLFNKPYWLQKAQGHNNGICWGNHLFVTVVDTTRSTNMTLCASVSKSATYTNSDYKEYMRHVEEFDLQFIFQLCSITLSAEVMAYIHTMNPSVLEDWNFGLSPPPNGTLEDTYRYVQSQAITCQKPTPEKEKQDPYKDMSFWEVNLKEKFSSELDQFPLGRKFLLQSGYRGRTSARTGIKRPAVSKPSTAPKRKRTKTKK
T6 sequence (P06416 whole entry): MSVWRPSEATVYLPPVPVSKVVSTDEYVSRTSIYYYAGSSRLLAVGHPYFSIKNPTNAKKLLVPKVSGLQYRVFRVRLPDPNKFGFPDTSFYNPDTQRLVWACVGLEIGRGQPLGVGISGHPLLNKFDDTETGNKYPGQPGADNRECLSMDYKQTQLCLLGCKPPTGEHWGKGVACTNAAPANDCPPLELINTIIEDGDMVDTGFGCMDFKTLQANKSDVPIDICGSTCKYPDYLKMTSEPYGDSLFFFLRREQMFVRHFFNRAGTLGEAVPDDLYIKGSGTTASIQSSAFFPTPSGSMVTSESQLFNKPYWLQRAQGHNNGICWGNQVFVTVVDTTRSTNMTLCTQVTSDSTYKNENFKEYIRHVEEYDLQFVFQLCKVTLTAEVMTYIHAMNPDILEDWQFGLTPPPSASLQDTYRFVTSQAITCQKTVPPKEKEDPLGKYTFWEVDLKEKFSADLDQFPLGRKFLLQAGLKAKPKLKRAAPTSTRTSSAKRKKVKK
T7 sequence (P36741 whole entry): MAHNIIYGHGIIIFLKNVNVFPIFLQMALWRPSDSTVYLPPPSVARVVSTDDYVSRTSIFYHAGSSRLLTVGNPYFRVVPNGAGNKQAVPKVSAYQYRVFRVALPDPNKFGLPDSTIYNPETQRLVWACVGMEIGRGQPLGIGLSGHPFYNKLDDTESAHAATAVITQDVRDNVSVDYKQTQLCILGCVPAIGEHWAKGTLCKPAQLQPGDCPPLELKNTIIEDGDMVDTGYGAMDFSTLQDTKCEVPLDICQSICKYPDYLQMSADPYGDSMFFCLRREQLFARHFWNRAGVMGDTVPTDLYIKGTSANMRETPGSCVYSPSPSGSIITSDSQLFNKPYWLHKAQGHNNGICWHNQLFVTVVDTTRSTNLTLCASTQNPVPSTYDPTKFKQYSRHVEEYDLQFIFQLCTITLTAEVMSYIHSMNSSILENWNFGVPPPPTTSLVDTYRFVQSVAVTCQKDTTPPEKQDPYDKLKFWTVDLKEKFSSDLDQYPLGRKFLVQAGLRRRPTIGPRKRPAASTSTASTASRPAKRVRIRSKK
T5 sequence (P17388 whole entry): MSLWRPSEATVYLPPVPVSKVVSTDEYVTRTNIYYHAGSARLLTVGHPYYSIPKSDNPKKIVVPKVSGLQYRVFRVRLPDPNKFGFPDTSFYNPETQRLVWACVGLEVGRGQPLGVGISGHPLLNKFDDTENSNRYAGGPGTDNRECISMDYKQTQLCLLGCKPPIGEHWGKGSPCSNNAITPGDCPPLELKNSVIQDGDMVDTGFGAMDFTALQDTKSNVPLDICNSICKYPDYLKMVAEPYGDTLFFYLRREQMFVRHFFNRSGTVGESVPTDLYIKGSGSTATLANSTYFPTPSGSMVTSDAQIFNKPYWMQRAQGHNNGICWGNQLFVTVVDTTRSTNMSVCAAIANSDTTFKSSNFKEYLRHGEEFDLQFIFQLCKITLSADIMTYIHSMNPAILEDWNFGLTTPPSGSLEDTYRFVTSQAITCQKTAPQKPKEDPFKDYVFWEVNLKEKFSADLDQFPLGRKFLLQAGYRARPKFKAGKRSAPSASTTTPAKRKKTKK

B1: monoclonal antibody 4C2 against HPV18 L1-VLP (antibody, V domains shown)
VH: VKLQESGAELMKPGASVKISCKATGYTFRSYWIEWVKQRPGHGLEWIGEILPGSGITNYNEKFKGKATFTADTSSNTAYMQLSSLTSEDSAVYYCARHWDGNAMDYWGQGTTVTVSS
VL: DIQLTQSPLSLPVSLGDQASISCRSSQSIVHSNGNTYLEWYLQKPGQSPKLLIYKVSNRFSGVPDRFSGSGSGTDFTLKISRVEAEDLGVYYCFQGSHVPLTFGAGTKLEI
notes: IgG1; Coating antibody of the sandwich ELISA kit; also called mAb 4C2; source: mouse hybridoma (BALB/c spleen cells fused with SP2/0), ascites, purified on Protein G; copies: 2 + 2
Turning to B1, the “IC50 of neutralisation of HPV18 pseudovirus (PsV18) infection of 293FT cells, fluorescence by flow cytometry” value in assay [1] stood at 10 mg/L. In addition, the binding result in assay [2], in assay [3], in [4], in [5], in assay [6] and in assay [7] was “no binding (tested: 0.3 μg/ml mAb)” in each case. For the same molecule, the Kd in assay [8] is 7.45 nM. The molecule also registered a koff in assay [8] of 0.0178 s⁻¹. The molecule further came in with an on-rate (kon) in assay [8] of 2.38e+06 M⁻¹ s⁻¹.

B2: monoclonal antibody 1B1 against HPV18 L1-VLP (antibody, V domains shown)
VH: VQLQQSGGDLVKPGGSLKLSCAASGFTFSSYGMSWVRQTPDKRLEWVATISGGGSYTYYPDSVKGRFTISRDNAKNTLYLQMSSLKSEDTAMYYCSRHDSYGNYAAWFAYWGQGTTVTVS
VL: DIQLTQSPALMAASPGEKVTITCSVSSSISSSNLHWYQQKSETSPKPWIYGTSNLASGVPVRFSGSGSGTSYSLTISSMEAEDAATYYCQQWSSYPFTFGSGTKLEI
notes: IgG1; unconjugated in indirect ELISA and SPR; also called mAb 1B1; 1B1-HRP; source: mouse hybridoma (BALB/c spleen cells fused with SP2/0), ascites, purified on Protein G; copies: 2 + 2
With B2, the “IC50 of neutralisation of HPV18 pseudovirus (PsV18) infection of 293FT cells, fluorescence by flow cytometry” value in [1] worked out at 0.039 mg/L. The binding result in assay [9], in [10], in assay [11], in [12], in assay [13] and in assay [3] was “no binding (tested: 0.3 μg/ml mAb)” throughout. For the same molecule, the dissociation constant Kd in assay [8] came to 2.06 nM. In [8], this molecule gave a koff of 0.00192 s⁻¹. The molecule also showed a kon in [8] of 931000 M⁻¹ s⁻¹.
